Data: patent publication EP3766894A1
Positions of bridges follow the written chain, without caps; N, C: chain ends. Non-standard residues stand in square brackets, D forms with d. Primed or numbered codes have the meaning given here. Chains are numbered I, II in the order given. No end group written: not given here. *: point of attachment. Palmitoyl = CCCCCCCCCCCCCCCC(=O)*; hArg = N=C(N)NCCCC[C@H](N)C(=O)O; Nle = CCCC[C@H](N)C(=O)O; PEG2″ = not defined here

Tests used:
[1] = molecular target: human serum albumin (HSA) (human), P02768; experiment: fluorescence polarization
[2] = molecular target: human Kallikrein-related peptidase 7 (hKLK7) (human), P49862; experiment: activity assay
Sequence of human Kallikrein-related peptidase 7 (hKLK7) (human), P49862 (P49862 30-253 limits assumed): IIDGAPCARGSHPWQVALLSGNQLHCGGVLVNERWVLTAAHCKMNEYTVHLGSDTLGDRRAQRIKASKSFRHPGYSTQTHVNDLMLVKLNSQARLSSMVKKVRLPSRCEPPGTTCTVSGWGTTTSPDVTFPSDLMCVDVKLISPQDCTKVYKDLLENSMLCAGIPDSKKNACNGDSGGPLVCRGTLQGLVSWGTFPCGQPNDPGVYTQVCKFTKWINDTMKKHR

Kd [1]: 164 nM | Ki [2]: 7.4 nM
B1: KLK7 inhibitor 278-tag (final KLK7 inhibitor) (peptide)
peptide 1: PCLY[Nle]A[hArg]CGKG
peptide 2: {fluorescein-PEG2″}-EYEK(Palmitoyl)EYE
modifications: bridge I:2-I:8; not fully specified (bridges); also: chain 2 C-terminus joined via PEG2 to Lys side chain of GKG linker
